Source: article doi:10.1101/2022.10.05.511050 (bioRxiv, 2022)
Where “and” joins values, the source holds several entries; their conditions need not be identical. Identical values can stand only once.

Molecular target: HA-tagged NLRC4 (UniProt Q3UP24 1-1024)
Assay: co-IP

HA-tagged NLRC4, sequence (Q3UP24 whole entry): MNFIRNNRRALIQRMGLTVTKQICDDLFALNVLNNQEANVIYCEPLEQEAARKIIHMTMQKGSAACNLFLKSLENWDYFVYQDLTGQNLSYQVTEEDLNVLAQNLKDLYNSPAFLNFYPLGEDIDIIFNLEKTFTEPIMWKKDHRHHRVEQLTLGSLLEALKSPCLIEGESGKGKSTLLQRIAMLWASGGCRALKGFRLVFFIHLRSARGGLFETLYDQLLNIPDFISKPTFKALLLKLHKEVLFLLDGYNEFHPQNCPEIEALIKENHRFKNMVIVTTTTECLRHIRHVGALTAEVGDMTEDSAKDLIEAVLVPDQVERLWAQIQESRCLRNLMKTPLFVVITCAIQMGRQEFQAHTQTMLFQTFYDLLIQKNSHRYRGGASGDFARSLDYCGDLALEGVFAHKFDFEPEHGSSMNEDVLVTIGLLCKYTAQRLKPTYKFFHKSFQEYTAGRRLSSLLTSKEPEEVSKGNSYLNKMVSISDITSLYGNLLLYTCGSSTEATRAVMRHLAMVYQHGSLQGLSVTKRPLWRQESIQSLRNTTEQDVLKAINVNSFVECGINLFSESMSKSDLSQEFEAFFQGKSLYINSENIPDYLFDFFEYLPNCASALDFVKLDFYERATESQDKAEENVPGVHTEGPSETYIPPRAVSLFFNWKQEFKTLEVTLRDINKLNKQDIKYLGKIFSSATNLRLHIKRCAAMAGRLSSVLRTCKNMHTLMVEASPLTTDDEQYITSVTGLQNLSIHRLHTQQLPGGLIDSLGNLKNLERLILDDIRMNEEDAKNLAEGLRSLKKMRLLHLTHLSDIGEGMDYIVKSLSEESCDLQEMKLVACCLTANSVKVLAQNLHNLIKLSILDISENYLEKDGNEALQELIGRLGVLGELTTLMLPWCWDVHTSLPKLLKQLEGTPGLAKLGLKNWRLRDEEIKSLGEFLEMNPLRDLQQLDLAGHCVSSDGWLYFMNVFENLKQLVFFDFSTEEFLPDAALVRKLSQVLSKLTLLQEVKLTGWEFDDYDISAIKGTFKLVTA

stoichiometry N: < 0.05 PELO per NLRC4 and ~0.05 PELO per NLRC4
B1: HA-tagged PELO (natural protein)
chain: MKLVRKDIEKDNAGQVTLVPEEPEDMWHTFNLVQVGDSLRASTIRKVQTESSTGSVGSNRVRTTLTLCVEAIDFDSQACQLRVKGTNIQENEYVKMGAYHTIELEPNRQFTLAKKQWDSVVLERIEQACDPAWSADVAAVVMQEGLAHVCLVTPSMTLTRAKVEVNIPRKRKGNCSQHDRALERFYEQVVQAIQRHINFEVVKCVLVASPGFVREQFCDYMFQQAVKTDNKVLLENRSKFLQVHASSGHKYSLKEALCDPTVASRLSDTKAAGEVKALDDFYKMLQHEPDRAFYGLKQVERANEALAIDTLLISDELFRHQDVATRSRYVRLVDSVKENAGTVRIFSSLHVSGEQLGQLTGVAAILRFPVPELSDQEDDSSSEED
